Assay: soluble on expression in E. coli; label from the status in PepcDB or PDB records

Sequence | soluble on expression in E. coli
MLKMSTRTEAMSDKQVRAQYTREFKLEAVRQVRAGQAIAGVAKVLGIPKASLGNGVRLAAKGALGGSGGSDKADRVSPEQMEIARLRAEVARLRMERDIAKKAAAYFAQDTLRGTPGLTQLEHHHHHH | not soluble
PSLSDEISPQGDGSFLIEGSTNIRDINKGLKWDLPTDGPRTLNGLILEHLEDIPESHLSVRVAGHPMEIVEIEENRIKLVRVYPKK | not soluble
THALEPSKPLAHDEKPITIEVVSMDWKWFFIYPEQGIATVNEIAFPANTPVYFKVTSNSVMHSFFIPRLGSQIYAMAGMQTRLHLIANEPGTYDGICAEICGPGHSGMKFKAIATPDRAAFDQWVAKAKQSPNTMSDMAAFEKLAAPSEYNQVEYFSNVKPDLFADVINKFMAHGKSMDMTQPEGEHSAHEGMEGMDMSHAESAH | soluble
EIEKGGCGDPGIPAYGKRTGSSFLHGDTLTFECPAAFELVGERVITCQQNNQWSGNKPSC | soluble
MIEIIETGPFNTVQDLGRPGYRDVGVSAGGAMDPLAVKIGNILLGNFDDAAVIEVQTFPFKMRFEARAAFAVTGADGQMLLDGRELLPWCTHVAAEGQVLELKQPPQFARAYISLTGGVDVPVLMGSRSTALRGGFGGNAGRPLARGDRLKIGTVADALPLPASGIAVIEPATALRDVFAPPIEGILQIRAIPAGEHGLFASDGEAFWSQTWRISSRSDRTGYRLSGEPIKPTETIEMRSHGVVPGVVQVPPGGEPIIQMSDANTAGGYPKVAGVIECDLWRLGQARIGSRLQFVRSTHAEARVVEQAVASYLEDIRQTSHMVKRALKAMAAAALEHHHHHH | not soluble
MKTFEVMIQTDSKGYLDAKFGGNAPKAFLNSNGLPTYSPKISWQKVEGAQSYALELIDHDAQKVCGMPFVHWVVGNIAHNVLEENASMMDKRIVQGVNSLTQGFIRSPLNESEKQRSNLNNSVYIGPMPPNGDHHYLIQVYALDIPKLALKAPFFLGDLHDKMRNHIIAIGRKEFLYKQFVRK | soluble
MSLSTGDASGAPAVWSHGYTEASGVKNKLCVAALSVNNFCDNREALYGVFDGDRNVEVPYLLQCTMSDILAEELQKTKNEEEYMVNTFIVMQRKLGTAGQKLGGAAVLCHIKHDPVDPGGSFTLTSANVGKCQTVLCRNGKPLPLSRSYIMSCEEELKRIKQHKAIITEDGKVNGVTESTRILGYTFLHPSVVPRPHVQSVLLTPQDEFFILGSKGLWDSLSVEEAVEAVRNVPDALAAAKKLCTLAQSYGCHDSISAVVVQLSVTEDEGHHHHHH | soluble
MIRQVIQRISNPEASIESLQERRFWLQCERAYTWQPIYQTCGRLMAVELLTVVTHPLNPSQRLPPDRYFTEITVSHRMEVVKEQIDLLAQKADFFIEHGLLASVNIDGPTLIALRQQPKILRQIERLPWLRFELVEHIRLPKDSTFASMCEFGPLWLDDFGTGMANFSALSEVRYDYIKIARELFVMLRQSPEGRTLFSQLLHLMNRYCRGVIVEGVETPEEWRDVQNSPAFAAQGWFLSRPAPIETLNTAVLAL | not soluble
NTIEKEERIKIAVLTEQNQKNRIADYQDREEIYERQRRKMHDYKNQLSTIQTLIKNGHTDEALSFTQKLTESIAVEMSAINTNHPVVNAILNQKYRSMQEKHIAVILKVGDLQEICLEEEEIVILLSNLLDNAIRESEKVLKNTGKAVIHLKLECEDHKLIFAVRNPVTEKVEIENDTIKSKRGDHHGIGLLNVKAVVDKYGGDMVLSCDENEFKAVVIL | not soluble
MGSDKIHHHHHHMKKHAYLIIAHDNWKILEKLLILLDDKRNDIYLHIDRKSNLINFSNNVHNANLFVFHEIDVRWGDISLIQVEFFLFKTAYCKGNYSYYHLISGSDLPLKTQDEIHAFFDAHYPTEFIGFSLEMTCDDRVNRAYIFPKYQRIKNRYGNKLLGSLRSFCAFLQKILNYNHYKLKDKLMIGPEWVSITEQSVSLILSKEKVIMKQYRFASCGDEVYKQTIIGNSFLFNYVYDKNDDYKGCMRYIDWTRGNPYIFRSADFEQLMSSDRMFARKFDEKVDFDIVERIFEVLNGQTSDSKMKYYF | not soluble
MGSDKIHHHHHHAQRVITASGKYITKNIKVTRFDQIYLKGSPTIEYTQSPGASKVQIAGSDNLVDLVECRVEGSTLIVNMKSRTNISYGKEGRLKILVSSPMLKSASLQGSGDIHLGSLKVEGLDVSLTGSGDIVAENITCNSDFSALLKGSGDIDVKGQLRAKSVNLNLQGSGDLKVAGVTGSEISAMLQGSGDLKVGSTNITSTVMAKLSGSGDMDVLDIRANSVSGQLDGSGDMTLSGSACNATLVLNRSGELSARKLDAENVTAHVNGSGEISCTATKTLETNIQGSGEISYKGNPSIRSTGKNHLNRL | not soluble
MIRIGVLISGSGTNLQAILDGCREGRIPGRVAVVISDRADAYGLERARRAGVDALHMDPAAYPSRTAFDAALAERLQAYGVDLVCLAGYMRLVRGPMLTAFPNRILNIHPSLLPAFPGLEAQRQALEHGVKVAGCTVHFVTAGVDEGPIILQAAVPVLEGDTVEDLRRRILAEEHRIYPEAIRLFAEGRLVIEGRRVRILDRAEAPRG | soluble
SDDKPNPEALSDSSERLFSFGVIADVQFADLEDGFNFQGTRRRYYRHSLLHLQGAIEDWNNESSMPCCVLQLGDIIDGYNAQYNASKKSLELVMDMFKRLKVPVHHTWGNHEFYNFSREYLTHSKLNTKFLEDQIVHHPETMPSEDYYAYHFVPFPKFRFILLDAYDLSVLGVDQSSPKYEQCMKILREHNPNTELNSPQGELFL | soluble
MGHHHHHHSHMDCCASRGCSVPTGPATTICSSDKSCRCGVCLPSTCPHTVWLLEPTCCDNCPPPCHIPQPCVPTCFLLNSCQPTPGLETLNLTTFTQPCCEPCLPRGC | not soluble
MDLVDPLAEPCAVCGDKSTGTHYGVISCNGCKGFFRRTVLRDQKFTCRFNKRCVIDKNFRCACRYCRFQKCVQVGMKREAIQFERDPVGSPTSGASLNGTPFKKDRSPGYENGNSNGVGSNGMGQENMRTVPQSSSVIDALMEMEARVNQEMCNRYRRSQIFANGSGGSNGNDTDIQQGSDSGASAFAPPNRPCTTEVDLNEISRTTLLLMVEWAKTINPFMDLSMEDKIILLKNYAPQHLILMPAFRSPDTTRVCLFNNTYMTRDNNTDLNGFAAFKTSNITPRVLDEIVWPMRQLQMREQEFVCLKALAFLHPEAKGLSNSSQIMIRDARNRVLKALYAFILDQMPDDAPTRYGNILLLAPALKALTQLLIENMTLTKFFGLAEVDSLLSEFILDDINDHSTAPVSLQQHLSSPTTLPTNGVSPLNPAGSVGSVSSVSGITPTGMLSATLAAPLAIHPLQSQDSILNSEQNNHML | soluble
MSLDKPVIKISTENVDLIYRVGDNGRLYQSYLGKRLNHATDIAHLPQGSEAYLTHGMEDYFEPAIHIVHNDGNPSTLLKYVSHTRNQVSPGVDEVVITMQDDKYPVTVKLHYVAYQKENLIKTFTEISHREKKPVQLHKYASSMLHLNRANYFLTEFSGDWASEAHVKEQPLEFGKKTIDTKLGARANMFCSPFFQLALDGKSEENQGEVLVGTLGWTGNFSFVFEVDNKNELRVISGINPYASEYSLKPNEIFRTPDFYFTYSFKGKGQASRNFHDWARKYQVKDGNQTRMTLLNNWEATYFDFDEAKLVKLMDDAVELGVDMFLLDDGWFANKYPRSGDHQGLGDWDETADKLPHGIGYLTEAAKKKGIKFGIWIEPEMVNPKSELYEKHKDWVIHLPNRDEYYFRNQLVLDLSNPKVQDYVFGVVDNLMTKYPDIAFFKWDCNSPITNIYSVYLKDKQSHLYIDYVRGLYNVLERVKAKYPDLPMMLCSGGGGRSDYEALSYFTEFWPSDNTDPIERLFIQWGFSQVFPAKTMCAHVTTWNKNSSVKFRTDVAMMCKLGFDIKLADMSKDDETYCRTAVQNYNRLKPVVLEGDMYRLVSPYGSNHTSTMYVGKDKDKAVVFAFDIHPRYAEKILPVRLQGLDADKMYRVKEINLMPGANSEGHHHHHH | not soluble
MPKFEVPDGWTVQAFRFTLDPTEDQAKALARHFGARRKAYNWTVATLKADIQAWHASGTVTAKPSLRVLRKRWNTVKDDVCVNTETGVAWWPECSKEAYADGIAGAVEAYWNWQTSRAGKRAGKRVGFPRFKRKGRDQDRVSFTTGAMRVEPDRRHLTLPVIGTVRTHENTRRIERLIKAGRARVLAISVRRNGTRLDASVRVLVQRPQQPKVVHPGSRVGVDVGVRRLATVATADGTAIEQVENPRPLGAALRELRHVCRARSRCTKGSRRYRERTTQISRLHRRVNDVRTHHLHVLTTRLAQTHGRIVVEGLDATEMLRQKGLPGARARRRGLSDAALGTPRRHLSYKTVWYGSALVVADRWFPSSKTCHACRHVQDIGWDEQWQCDRCSVVHQRDDCAAINLARYEETSSIVGPVGAAVKRGADRKTGPRPAGGCEARKGSSPKAAEQPRDGVQVA | not soluble
MARIIRRPLNLTAAVRFRLSPLSPFSGNSGSINSETTSWSELIRVPSLVEGCDYKHWLVLMKPPNGYPTRNHIVQSFVETLAMALGSEEEAKRSIYSVSTKYYYAFGCRIHEPLTYKIRSLPDVKWVLPDSFIVDGDNRYGGEPFVDGEVVPYDEKYHADWLRDQTDEDAKSGVVKKKHRRKRKKKLI | soluble
MYNGIGLQTARGSGTNGYVQSNLSHLMQARRKIEYNGEDDLRKMEAELNRKPNEEIMDHNRKRQIEVKCTEFEMLLEDKGLDDEDIERKVGEYRKNLLKQLESGELNVDEELSTKESHARRRAAANNRDKMRNALGLGEDYVPGSSMAKMNKSDVVGAAMESELPQKDDKEKLLETLRLHRKSKKKQESSSSSSSSSSSSESSSEDEKHRKDRKKKEKKQKLKEMEKRREKLRQKERELLAVSDKVKKEEPAESSDEEDSRKDQRKPREDRRRSVERQDQREDRRDRRRSPEDPRERRRSPEDRTVRRRSPERRRQQRSPSVERRKSPQRRDERRRRHDSSENERRSTATASKKSRMDELEVKQEPPSDSEDYIAKTNLAPIRVEKSAEKVEKSRKSSSESSSGSSDSDSSSDSSSSSDSSSDSE | not soluble
MHHHHHHAADPPPVHDTDGHELRADANYYVLSANRAHGGGLTMAPGHGRHCPLFVSQDPNGQHDGFPVRITPYGVAPSDKIIRLSTDVRISFRAYTTCLQSTEWHIDSELAAGRRHVITGPVKDPSPSGRENAFRIEKYSGAEVHEYKLMSSGDWCQDLGVFRDLKGGAWFLGATEPYHVVVFKKAPPA | soluble
MRGSPRTKDRLAALKAAVSDEEDVEEVAVQVDSGGGFMEEFFEQVEEIRAMIDKISDNVDAVKKKHSDILSAPQTDDQMKEELEELMTDIKRTANKVRGKLKTIELNIEQEEHSNKSSADLRIRKTQYSTISRKFVEVMSDYNTTQIDYRDRCKARIKRQMEITGRTTTNEELEDMLESG | soluble
SLTTEVVMENVTAFWEEGFGELFEKAKQNNNNRKTSNGDDSLSFSNFSLLGTPVLKDINFKIERGQLLAVAGSTGAGKTSLLMMIMGELEPSEGKIKHSGRISFCSQFSWIMPGTIKENIIFGVSYDEYRYRSVIKACQLEEDISKFAEKDNIVLGEGGITLSGGQRARISLARAVYKDADLYLLDSPFGYLDVLTEKEIFESCVCKLMANKTRILVTSKMEHLKKADKILILHEGSSYFYGTFSELQNLQPDFSSKLMGGGGGSGGGGSGGGGSDDIWPSGGQMTVKDLTAKYTEGGNAILENISFSISPGQRVGLLGRTGSGKSTLLSAFLRLLNTEGEIQIDGVSWDSITLQQWRKAFGVIPQKVFIFSGTFRKNLDPYEQWSDQEIWKVADEVGLRSVIEQFPGKLDFVLVDGGCVLSHGHKQLMCLARSVLSKAKILLLDQPSAHLDPVTYQIIRRTLKQAFADCTVILCEHRIEAMLECQQFLVIEENKVRQYDSIQKLLNERSLFRQAISPSDR | soluble
